Experimental data taken from the RNAGym collection of RNA variant scans (doi:10.7554/elife.90254).

B1: LINE1-full (parent)
chain: UACGUAGGUGGUUUUCCCCUGAUAGUGCUAAGGGGGCCUGGAAGUUUGGACUGGGCAGAGCUCAACACAGCGUGGCAAAGUGGCUGUGGCUAGACUGCCUCUCUGGAUUCCUCGUCACUCAGCAGGGCAUCUCUGAGAGAAAUGCC

Variants of: B1
Assay: self-cleavage, relative activity (ratio to wild type); higher = more cleavage; in vitro, sequencing; the parent is a self-cleaving ribozyme

Row | Variant | self-cleavage
1 | UACGUAGGUGGUUUUCCCCUGAUAGUGCUAAGGGGGCUUGUAAGUUUGGACUGGGCAGAGCUCAACACAGCGUGGCAAAGUGGCUGUGGCUAGACUGCCUCUCUGGAUUCCUCGUCACUCAGCAGGGCAUCUCUGAGAGAAAUGCC [C38U G41U] | 1.21
2 | UACGUAGGUGGUUUUCCCCUGAUAGUGCUAAGGGGGCUUGGAAGUUUGGACUGGGCAGAACUCAACACAGCGUGGCAAAGUGGCUGUGGCUAGACUGCCUCUCUGGAUUCCUCGUCACUCAGCAGGGCAUCUCUGAGAGAAAUGCC [C38U G60A] | 0.05
3 | UACGUAGGUGGUUUUCCCCUGAUAGUGCUAAGGGGGCUAGGAAGUUUGGACUGGGCAGAGCUCAACACAGCGUGGCAAAGUGGCUGUGGCUAGACUGCCUCUCUGGAUUCCUCGUCACUCAGCAGGGCAUCUCUGAGAGAAAUGCC [C38U U39A] | 1.09
4 | UACGUAGGUGGUUUUCCCCUGAUAGUGCUAAGGGGGCUUGGAAGCUUGGACUGGGCAGAGCUCAACACAGCGUGGCAAAGUGGCUGUGGCUAGACUGCCUCUCUGGAUUCCUCGUCACUCAGCAGGGCAUCUCUGAGAGAAAUGCC [C38U U45C] | 1.39
5 | UACGUAGGUGGUUUUCCCCUGAUAGUGCUAAGGGGGCUUGGAAGUAUGGACUGGGCAGAGCUCAACACAGCGUGGCAAAGUGGCUGUGGCUAGACUGCCUCUCUGGAUUCCUCGUCACUCAGCAGGGCAUCUCUGAGAGAAAUGCC [C38U U46A] | 1.28
6 | UACGUAGGUGGUUUUCCCCUGAUAGUGCUAAGGGGGCUUGGAAGUUCGGACUGGGCAGAGCUCAACACAGCGUGGCAAAGUGGCUGUGGCUAGACUGCCUCUCUGGAUUCCUCGUCACUCAGCAGGGCAUCUCUGAGAGAAAUGCC [C38U U47C] | 0.93
7 | UACGUAGGUGGUUUUCCCCUGAUAGUGCUAAGGGGGCUUGGAAGUUUGGACUGGGCAGAGCACAACACAGCGUGGCAAAGUGGCUGUGGCUAGACUGCCUCUCUGGAUUCCUCGUCACUCAGCAGGGCAUCUCUGAGAGAAAUGCC [C38U U62A] | 0.02
8 | UACGUAGGUGGUUUUCCCCUGAUAGUGCUAAGGGGGCUUGGAAGUUUGGACUGGGCAGAGCCCAACACAGCGUGGCAAAGUGGCUGUGGCUAGACUGCCUCUCUGGAUUCCUCGUCACUCAGCAGGGCAUCUCUGAGAGAAAUGCC [C38U U62C] | 0
9 | UACGUAGGUGGUUUUCCCCUGAUAGUGCUAAGGGGGCUUGGAAGUUUGGACUGGGCAGAGCUCAACACAGCGUGGCAAAGUGGCUGUGGCUAGACAGCCUCUCUGGAUUCCUCGUCACUCAGCAGGGCAUCUCUGAGAGAAAUGCC [C38U U96A] | 0.04
10 | UACGUAGGUGGUUUUCCCCUGAUAGUGCUAAGGGGGCUUGGAAGUUUGGACUGGGCAGAGCUCAACACAGCGUGGCAAAGUGGCUGUGGCUAGACCGCCUCUCUGGAUUCCUCGUCACUCAGCAGGGCAUCUCUGAGAGAAAUGCC [C38U U96C] | 0.17
11 | UACGUAGGUGGUUUUCCCCUGAUAGUGCUAAGGGGGCUUGGAAGUUUGGACUGGGCAGAGCUCAACACAGCGUGGCAAAGUGGCUGUGGCUAGACUGCCUCUCUGGAUUCCUCGACACUCAGCAGGGCAUCUCUGAGAGAAAUGCC [C38U U115A] | 1.46
12 | UACGUAGGUGGUUUUCCCCUGAUAGUGCUAAGGGGGCUUGGAAGUUUGGACUGGGCAGAGCUCAACACAGCGUGGCAAAGUGGCUGUGGCUAGACUGCCUCUCUGGAUUCCUCGCCACUCAGCAGGGCAUCUCUGAGAGAAAUGCC [C38U U115C] | 1.6
13 | UACGUAGGUGGUUUUCCCCUGAUAGUGCUAAGGGGGCUUGGAAGUUUGGACUGGGCAGAGCUCAACACAGCGUGGCAAAGUGGCUGUGGCUAGACUGCCUCUCUGGAUUCCUCGUCACUCAGCAGGGCACCUCUGAGAGAAAUGCC [C38U U130C] | 1.46
14 | UACGUAGGUGGUUUUCCCCUGAUAGUGCUAAGGGGGCUUGGAAGUUUGGACUGGGCAGAGCUCAACACAGCGUGGCAAAGUGGCUGUGGCUAGACUGCCUCUCUGGAUUCCUCGUCACUCAGCAGGGCAUCUCCGAGAGAAAUGCC [C38U U134C] | 1.14
15 | UACGUAGGUGGUUUUCCCCUGAUAGUGCUAAGGGGGCCAGGAAGUUUGGACUGGGCAGAGCUCAACACAGCGUGGCAAAGUGGCUGUGGCUAGACUGCCUCUCUGGAUUCCUCGUCACUCAGCAGGGCAUCUCUGAGAGAAAUGCC [U39A] | 1.34
16 | UACGUAGGUGGUUUUCCCCUGAUAGUGCUAAGGGGGCCAGGAUGUUUGGACUGGGCAGAGCUCAACACAGCGUGGCAAAGUGGCUGUGGCUAGACUGCCUCUCUGGAUUCCUCGUCACUCAGCAGGGCAUCUCUGAGAGAAAUGCC [U39A A43U] | 1.39
17 | UACGUAGGUGGUUUUCCCCUGAUAGUGCUAAGGGGGCCAGGAAGUUUGGACUGGGCGGAGCUCAACACAGCGUGGCAAAGUGGCUGUGGCUAGACUGCCUCUCUGGAUUCCUCGUCACUCAGCAGGGCAUCUCUGAGAGAAAUGCC [U39A A57G] | 0.87
18 | UACGUAGGUGGUUUUCCCCUGAUAGUGCUAAGGGGGCCAGGAAGUUUGGACUGGGCUGAGCUCAACACAGCGUGGCAAAGUGGCUGUGGCUAGACUGCCUCUCUGGAUUCCUCGUCACUCAGCAGGGCAUCUCUGAGAGAAAUGCC [U39A A57U] | 0.12
19 | UACGUAGGUGGUUUUCCCCUGAUAGUGCUAAGGGGGCCAGGAAGUUUGGACUGGGCAGGGCUCAACACAGCGUGGCAAAGUGGCUGUGGCUAGACUGCCUCUCUGGAUUCCUCGUCACUCAGCAGGGCAUCUCUGAGAGAAAUGCC [U39A A59G] | 0.08
20 | UACGUAGGUGGUUUUCCCCUGAUAGUGCUAAGGGGGCCAGGAAGUUUGGACUGGGCAGUGCUCAACACAGCGUGGCAAAGUGGCUGUGGCUAGACUGCCUCUCUGGAUUCCUCGUCACUCAGCAGGGCAUCUCUGAGAGAAAUGCC [U39A A59U] | 1.19

Row | Variant | self-cleavage
21 | UACGUAGGUGGUUUUCCCCUGAUAGUGCUAAGGGGGCCAGGAAGUUUGGACUGGGCAGAGCUCAGCACAGCGUGGCAAAGUGGCUGUGGCUAGACUGCCUCUCUGGAUUCCUCGUCACUCAGCAGGGCAUCUCUGAGAGAAAUGCC [U39A A65G] | 0.05
22 | UACGUAGGUGGUUUUCCCCUGAUAGUGCUAAGGGGGCCAGGAAGUUUGGACUGGGCAGAGCUCAUCACAGCGUGGCAAAGUGGCUGUGGCUAGACUGCCUCUCUGGAUUCCUCGUCACUCAGCAGGGCAUCUCUGAGAGAAAUGCC [U39A A65U] | 0.15
23 | UACGUAGGUGGUUUUCCCCUGAUAGUGCUAAGGGGGCCAGGAAGUUUGGACUGGGCAGAGCUCAACGCAGCGUGGCAAAGUGGCUGUGGCUAGACUGCCUCUCUGGAUUCCUCGUCACUCAGCAGGGCAUCUCUGAGAGAAAUGCC [U39A A67G] | 0.43
24 | UACGUAGGUGGUUUUCCCCUGAUAGUGCUAAGGGGGCCAGGAAGUUUGGACUGGGCAGAGCUCAACUCAGCGUGGCAAAGUGGCUGUGGCUAGACUGCCUCUCUGGAUUCCUCGUCACUCAGCAGGGCAUCUCUGAGAGAAAUGCC [U39A A67U] | 0.07
25 | UACGUAGGUGGUUUUCCCCUGAUAGUGCUAAGGGGGCCAGGAAGUUUGGACUGGGCAGAGCUCAACACGGCGUGGCAAAGUGGCUGUGGCUAGACUGCCUCUCUGGAUUCCUCGUCACUCAGCAGGGCAUCUCUGAGAGAAAUGCC [U39A A69G] | 0.55
26 | UACGUAGGUGGUUUUCCCCUGAUAGUGCUAAGGGGGCCAGGAAGUUUGGACUGGGCAGAGCUCAACACUGCGUGGCAAAGUGGCUGUGGCUAGACUGCCUCUCUGGAUUCCUCGUCACUCAGCAGGGCAUCUCUGAGAGAAAUGCC [U39A A69U] | 0.04
27 | UACGUAGGUGGUUUUCCCCUGAUAGUGCUAAGGGGGCCAGGAAGUUUGGACUGGGCAGAGCUCAACACAGCGUGGCGAAGUGGCUGUGGCUAGACUGCCUCUCUGGAUUCCUCGUCACUCAGCAGGGCAUCUCUGAGAGAAAUGCC [U39A A77G] | 2.32
28 | UACGUAGGUGGUUUUCCCCUGAUAGUGCUAAGGGGGCCAGGAAGUUUGGACUGGGCAGAGCUCAACACAGCGUGGCAGAGUGGCUGUGGCUAGACUGCCUCUCUGGAUUCCUCGUCACUCAGCAGGGCAUCUCUGAGAGAAAUGCC [U39A A78G] | 1.38
29 | UACGUAGGUGGUUUUCCCCUGAUAGUGCUAAGGGGGCCAGGAAGUUUGGACUGGGCAGAGCUCAACACAGCGUGGCAUAGUGGCUGUGGCUAGACUGCCUCUCUGGAUUCCUCGUCACUCAGCAGGGCAUCUCUGAGAGAAAUGCC [U39A A78U] | 1.98
30 | UACGUAGGUGGUUUUCCCCUGAUAGUGCUAAGGGGGCCAGGAAGUUUGGACUGGGCAGAGCUCAACACAGCGUGGCAAAGUGGCUGUGGCUGGACUGCCUCUCUGGAUUCCUCGUCACUCAGCAGGGCAUCUCUGAGAGAAAUGCC [U39A A92G] | 0.1
31 | UACGUAGGUGGUUUUCCCCUGAUAGUGCUAAGGGGGCCAGGAAGUUUGGACUGGGCAGAGCUCAACACAGCGUGGCAAAGUGGCUGUGGCUUGACUGCCUCUCUGGAUUCCUCGUCACUCAGCAGGGCAUCUCUGAGAGAAAUGCC [U39A A92U] | 0.57
32 | UACGUAGGUGGUUUUCCCCUGAUAGUGCUAAGGGGGCCAGGAAGUUUGGACUGGGCAGAGCUCAACACAGCGUGGCAAAGUGGCUGUGGCUAGGCUGCCUCUCUGGAUUCCUCGUCACUCAGCAGGGCAUCUCUGAGAGAAAUGCC [U39A A94G] | 0.36
33 | UACGUAGGUGGUUUUCCCCUGAUAGUGCUAAGGGGGCCAGGAAGUUUGGACUGGGCAGAGCUCAACACAGCGUGGCAAAGUGGCUGUGGCUAGACUGCCUCUCUGGGUUCCUCGUCACUCAGCAGGGCAUCUCUGAGAGAAAUGCC [U39A A107G] | 1.42
34 | UACGUAGGUGGUUUUCCCCUGAUAGUGCUAAGGGGGCCAGGAAGUUUGGACUGGGCAGAGCUCAACACAGCGUGGCAAAGUGGCUGUGGCUAGACUGCCUCUCUGGUUUCCUCGUCACUCAGCAGGGCAUCUCUGAGAGAAAUGCC [U39A A107U] | 1.43
35 | UACGUAGGUGGUUUUCCCCUGAUAGUGCUAAGGGGGCCAGGAAGUUUGGACUGGGCAGAGCUCAACACAGCGUGGCAAAGUGGCUGUGGCUAGACUGCCUCUCUGGAUUCCUCGUCGCUCAGCAGGGCAUCUCUGAGAGAAAUGCC [U39A A117G] | 1.39
36 | UACGUAGGUGGUUUUCCCCUGAUAGUGCUAAGGGGGCCAGGAAGUUUGGACUGGGCAGAGCUCAACACAGCGUGGCAAAGUGGCUGUGGCUAGACUGCCUCUCUGGAUUCCUCGUCACUCAGCGGGGCAUCUCUGAGAGAAAUGCC [U39A A124G] | 0.97
37 | UACGUAGGUGGUUUUCCCCUGAUAGUGCUAAGGGGGCCAGGAAGUUUGGACUGGGCAGAGCUCAACACAGCGUGGCAAAGUGGCUGUGGCUAGACUGCCUCUCUGGAUUCCUCGUCACUCAGCAGGGCGUCUCUGAGAGAAAUGCC [U39A A129G] | 1.27
38 | UACGUAGGUGGUUUUCCCCUGAUAGUGCUAAGGGGGCCAGGAAGUUUGGACUGGGCAGAGCUCAACACAGCGUGGCAAAGUGGCUGUGGCUAGACUGCCUCUCUGGAUUCCUCGUCACUCAGCAGGGCUUCUCUGAGAGAAAUGCC [U39A A129U] | 1.65
39 | UACGUAGGUGGUUUUCCCCUGAUAGUGCUAAGGGGGCCAGGAAGUUUGGACUGGGCAGAGCUCAACACAGCGUGGCAAAGUGGCUGUGGCUAGACUGCCUCUCUGGAUUCCUCGUCACUCAGCAGGGCAUCUCUGAGGGAAAUGCC [U39A A138G] | 1.27
